Experimental data: US20080108128A1, “Resonance Energy Transfer Assay System for Multi-Component Detection” (priority 2003, published 2008)

Target: T1, CCR2 (Homo sapiens, UniProt P41597)
T1 construct: expressed in transfected cells; host or cells: Cos-7
Assay: multiplex BRET assay of ligand induced CCR2:beta-arrestin-2 interaction in live Cos-7 cells
Type: cell-based
Details: Cos-7 cells co-expressing Rluc-Barr2, TRHR and CCR2 fusions (EYFP / t-dimer2(12)); MCP1 0.1 μM, 37° C. 10 min; coelenterazine h 5 μM
Description: A construct for the expression of bovine beta-arrestin-2, N-terminally fused to Rluc (Rluc-Barr2) was constructed by amplification of the bovine beta-arrestin-2 coding sequence by PCR using the Barr2-fw and Barr2-re primers (template: construct containing bovine beta-arrestin2 in pcDNA3 (Invitrogen)). The 5′ and 3′ primers used contained EcoRV and NotI restriction enzyme sites, respectively. A second PCR product, containing the coding sequence for Rluc, was generated by amplifying the Rluc cDNA sequence with the primers Rluc-fw and Rluc-re using the plasmid pRL-CMV (Promega) as a template. This second PCR product contained HindIII and EcoRV restriction site at the 5′ and 3′ ends, respectively. Both PCR products were then cloned together into the HindIII/NotI sites of pcDNA3 (Invitrogen). […]
Ligands or combinations of ligands were added to the samples to a final concentration of 1 μM for TRH and 0.1 μM for MCP1, the natural ligands for the TRHR and CCR2 receptors, respectively. […] A Varian Eclipse fluorescence spectrometer (Varian) was used to record luminescence spectra in the range between 400-700 nm after coelenterazine h (Molecular Probes) was added to the samples to a final concentration of 5 μM.
The spectra were further analysed by integrating the peak areas of the EYFP and t-dimer2(12) emission peaks as described in Example 2. […]

T1 sequence (P41597 1-360 isoform P41597-2): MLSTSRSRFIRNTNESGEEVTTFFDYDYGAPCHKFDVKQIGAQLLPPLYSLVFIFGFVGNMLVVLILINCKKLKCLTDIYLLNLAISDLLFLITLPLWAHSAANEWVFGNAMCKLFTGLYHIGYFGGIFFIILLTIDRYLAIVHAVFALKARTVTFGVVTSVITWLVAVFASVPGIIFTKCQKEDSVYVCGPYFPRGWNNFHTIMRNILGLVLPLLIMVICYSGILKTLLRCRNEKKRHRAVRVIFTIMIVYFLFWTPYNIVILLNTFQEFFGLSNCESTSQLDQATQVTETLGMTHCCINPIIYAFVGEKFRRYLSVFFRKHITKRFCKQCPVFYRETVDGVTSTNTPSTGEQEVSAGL
T1 sequence (P32120 whole entry partner): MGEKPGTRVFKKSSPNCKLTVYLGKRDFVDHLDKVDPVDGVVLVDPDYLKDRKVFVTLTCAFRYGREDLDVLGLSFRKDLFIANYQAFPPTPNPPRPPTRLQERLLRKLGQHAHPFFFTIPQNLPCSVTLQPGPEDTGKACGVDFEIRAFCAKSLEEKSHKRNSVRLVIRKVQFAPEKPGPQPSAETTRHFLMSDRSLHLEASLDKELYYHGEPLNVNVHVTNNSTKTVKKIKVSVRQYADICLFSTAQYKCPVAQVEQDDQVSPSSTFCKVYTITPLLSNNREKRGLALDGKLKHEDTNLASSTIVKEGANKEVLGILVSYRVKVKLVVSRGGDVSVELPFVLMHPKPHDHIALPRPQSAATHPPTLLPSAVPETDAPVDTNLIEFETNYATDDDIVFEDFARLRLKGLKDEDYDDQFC

Substance: MCP1: natural ligand for the CCR2 receptor
- ligand induced RET signal of CCR2 with Rluc-beta-arrestin-2: activated this receptor as was observed in an increase of the respective RET signal with beta-arrestin-2
